B1: BTB/POZ and MATH domain-containing protein 1 (Arabidopsis thaliana (Mouse-ear cress)), Q8L765 (parent)
chain: MGTTRVCSEVSSGSSKSLSQSLTVSTSTTETVNGFHEFKICGYSLAKGVGVGKYVASDTFMVGGYSWAIYFYPDGKSPEDNSSYVSLFIALASEGADVRALFELTLVDQSGNGKHKVHSHFGRALDSGPYTLKYRGSMWGYKRFFRRSSLESSDYLKENSLLVRCRVGVVKSVTEGPRYYNIPVPVSNLGQQLGNLLESGKGCDVVFQVDGETFNAHKLVLATRSPVFNAQLFGPLGDRNTKCITIEDMEAPIFKVLLHFIYWDELPDMQELIGTDSTLASTLVAQHLLAAADRYALERLKAICESKLCEGVAINTVATTLALAEQHHCLQLKAVCLKFVALPENLKAVMQTDGFDYLKESCPSLLTELLQYVARLSEHSVIVSGHRKEIFADGCDASGRRVKPRLH
partner: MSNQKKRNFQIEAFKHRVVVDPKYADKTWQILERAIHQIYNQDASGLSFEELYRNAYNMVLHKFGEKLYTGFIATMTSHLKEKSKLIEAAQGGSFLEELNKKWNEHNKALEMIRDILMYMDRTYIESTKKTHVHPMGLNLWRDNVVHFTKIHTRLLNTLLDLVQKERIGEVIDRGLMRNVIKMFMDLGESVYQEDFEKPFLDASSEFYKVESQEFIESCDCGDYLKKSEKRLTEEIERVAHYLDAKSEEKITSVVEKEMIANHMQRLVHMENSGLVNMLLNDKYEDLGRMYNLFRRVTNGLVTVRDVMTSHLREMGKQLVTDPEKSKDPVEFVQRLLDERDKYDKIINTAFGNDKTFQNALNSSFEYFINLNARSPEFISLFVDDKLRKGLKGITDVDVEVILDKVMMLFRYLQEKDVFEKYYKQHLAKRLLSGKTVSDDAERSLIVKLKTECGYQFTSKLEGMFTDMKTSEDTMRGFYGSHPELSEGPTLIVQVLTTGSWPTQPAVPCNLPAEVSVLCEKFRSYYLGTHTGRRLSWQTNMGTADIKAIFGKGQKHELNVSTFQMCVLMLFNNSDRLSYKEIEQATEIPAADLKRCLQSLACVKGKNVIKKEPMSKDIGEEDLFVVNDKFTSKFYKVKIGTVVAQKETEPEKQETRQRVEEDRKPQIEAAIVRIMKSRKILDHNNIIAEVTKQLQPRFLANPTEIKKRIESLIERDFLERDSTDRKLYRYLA
B2: Cullin-3A (Arabidopsis thaliana (Mouse-ear cress)), Q9ZVH4 (parent)
chain: B1 partner
partner: B1 chain

Variants of: B1
Details: with cul3a_arath CUL3A, Q9ZVH4

**Q.** Y295A was tested. Which “effect of a mutation on the interaction” value did it give?
**A.** decreasing interaction

**Q.** How did the “effect of a mutation on the interaction” value turn out when D293A was run?
**A.** decreasing interaction

**Q.** How did the “effect of a mutation on the interaction” value turn out when D204A was run?
**A.** decreasing interaction

Variants of: B2
Details: with bpm1_arath BPM1, Q8L765

**Q.** How did the “effect of a mutation on the interaction” value turn out when S48A;F49A was run?
**A.** decreasing interaction

— IntAct's records for PubMed 15618422
